Results on one protein are retold here after publication PMC2942778 (Biochemistry, 2010).

This data set deals with the molecule itself. Briefly: AUC.

B1: BlaI gene repressor (blaI gene product) of plasmid pI258 from S. aureus NRS128 (natural protein)
chain: MANKQVEISMAEWDVMNIIWGKKSVSANEIVVEIQKYKEVSDKTIRTLITRLYKKEIIKRYKSENIYFYSSNIKEDDIKMKTAKTFLNKLYGGDMKSLVLNFAKNEELNNKEIEELRDILNDISKK
As to B1, the Kd – broadly, the constant that tells how readily two partners part at equilibrium – worked out at 1610 ± 20 nM and the stoichiometry N – broadly, the number of molecules, sites or subunits per partner or assembly – is 2.
